{"source": "paper PMC9429925", "about": "“Tight Complex Formation of the Fumarate Sensing DcuS-DcuR Two-Component System at the Membrane and Target Promoter Search by Free DcuR Diffusion” (mSphere, 2022)", "binders": {"B1": {"name": "phosphorylated PASC-Kin (PASC-Kin-P) (domain or fragment, E. coli, UniProt P0AEC8 212-539, looked up)", "chain": "LEPYEISTLFEQRQAMLQSIKEGVVAVDDRGEVTLINDAAQELLNYRKSQDDEKLSTLSHSWSQVVDVSEVLRDGTPRRDEEITIKDRLLLINTVPVRSNGVIIGAISTFRDKTEVRKLMQRLDGLVNYADALRERSHEFMNKLHVILGLLHLKSYKQLEDYILKTANNYQEEIGSLLGKIKSPVIAGFLISKINRATDLGHTLILNSESQLPDSGSEDQVATLITTLGNLIENALEALGPEPGGEISVTLHYRHGWLHCEVNDDGPGIAPDKIDHIFDKGVSTKGSERGVGLALVKQQVENLGGSIAVESEPGIFTQFFVQIPWDGE", "modifications": "phosphorylated by autophosphorylation with ATP; phosphorylation site His349", "notes": "cytoplasmic part of E. coli DcuS, residues 212-539, autophosphorylated with ATP; source: E. coli BL21(DE3), purified (Ni-NTA agarose), then incubated with 1 mM ATP; not shown: His6, N-terminal, kept"}, "B2": {"name": "His6-PASc-Kin (DcuS [AS 212-539]) (domain or fragment, E. coli, UniProt P0AEC8 212-539, looked up)", "chain": "LEPYEISTLFEQRQAMLQSIKEGVVAVDDRGEVTLINDAAQELLNYRKSQDDEKLSTLSHSWSQVVDVSEVLRDGTPRRDEEITIKDRLLLINTVPVRSNGVIIGAISTFRDKTEVRKLMQRLDGLVNYADALRERSHEFMNKLHVILGLLHLKSYKQLEDYILKTANNYQEEIGSLLGKIKSPVIAGFLISKINRATDLGHTLILNSESQLPDSGSEDQVATLITTLGNLIENALEALGPEPGGEISVTLHYRHGWLHCEVNDDGPGIAPDKIDHIFDKGVSTKGSERGVGLALVKQQVENLGGSIAVESEPGIFTQFFVQIPWDGE", "notes": "cytoplasmic part of E. coli DcuS (Linker, PASC and kinase domains), residues 212-539; unphosphorylated; pET28a derivative; homodimer by SEC (Mr 84 kDa, monomer 40.4 kDa); also called His6-PASc-Kinase; 6His-PASc-Kinase; source: E. coli BL21(DE3), purified (Ni-NTA agarose); not shown: His6, N-terminal, kept"}}, "key": {"His6-DcuR": {"molecular_target": "T1, His6-DcuR (E. coli, UniProt P0AD01 1-239)", "T1 construct": "response regulator DcuR of E. coli; unphosphorylated; also called DcuR-6His; source: E. coli BL21(DE3), purified (Ni-NTA agarose)", "T1 sequence (looked up)": "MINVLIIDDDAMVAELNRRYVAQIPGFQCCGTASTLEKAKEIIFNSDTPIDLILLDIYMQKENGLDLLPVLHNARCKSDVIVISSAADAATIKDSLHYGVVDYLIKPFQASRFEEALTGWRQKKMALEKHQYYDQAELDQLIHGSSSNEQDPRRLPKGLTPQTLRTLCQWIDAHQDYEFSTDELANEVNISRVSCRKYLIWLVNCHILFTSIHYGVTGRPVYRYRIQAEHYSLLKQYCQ", "assay": "SEC; mixtures of PASC-Kin and DcuR (phosphate-free or phosphorylated), molar ratios 1:1.44, 1:2, 1:1.4 with PASC-Kin at 40.4 μM (also 1:0.2, 1:5, 1:10 for PASC-Kin-P and DcuR); HiLoad 16/600 Sephadex 200; peak fractions analysed by SDS-PAGE and quantified with ImageJ", "conditions": "both partners purified"}, "[1]": {"molecular_target": "the molecule itself", "assay": "SEC; mixtures of PASC-Kin and DcuR (phosphate-free or phosphorylated), molar ratios 1:1.44, 1:2, 1:1.4 with PASC-Kin at 40.4 μM (also 1:0.2, 1:5, 1:10 for PASC-Kin-P and DcuR); HiLoad 16/600 Sephadex 200; peak fractions analysed by SDS-PAGE and quantified with ImageJ"}, "[2]": {"molecular_target": "the molecule itself", "assay": "SEC; each protein alone on HiLoad 16/600 Sephadex 200; His6-PASc-Kinase 45 μM, DcuR 55 μM; 50 mM Tris-HCl, 1 mM DTT, 50 mM KCl, 5 mM MgCl2, pH 7.7, 25°C; Mr by calibration with protein standards"}, "T25-DcuR": {"molecular_target": "T2, T25-DcuR (E. coli, UniProt P0AD01 1-239)", "T2 construct": "response regulator DcuR of E. coli (REC and HTH domains); also called DcuR-fusion; source: bacterial two-hybrid (BACTH) fusion in E. coli BTH101; not shown: T25 domain of Bordetella pertussis adenylate cyclase, N-terminal, kept", "T2 sequence (looked up)": "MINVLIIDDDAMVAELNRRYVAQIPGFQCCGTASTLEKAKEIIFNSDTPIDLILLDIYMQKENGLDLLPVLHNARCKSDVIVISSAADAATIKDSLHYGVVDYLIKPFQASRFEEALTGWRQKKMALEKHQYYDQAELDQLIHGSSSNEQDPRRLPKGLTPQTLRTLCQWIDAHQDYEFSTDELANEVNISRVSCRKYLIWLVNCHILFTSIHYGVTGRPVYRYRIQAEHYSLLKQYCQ", "assay": "two-hybrid; bacterial two-hybrid BACTH in E. coli BTH101 (ΔcyaA); T25 N-terminally on DcuR, T18 C-terminally on DcuS or PASC-Kin; β-galactosidase activity in Miller units; wild-type pair also with fumarate", "conditions": "partners not purified"}, "[3]": {"molecular_target": "B2", "assay": "MST; eYFP-L-DcuR at 0.1 μM, His6-PASC-Kin titrated from 10^-1 to 2 x 10^4 nM; Tris/HCl pH 7.7, 10 mM MgCl2, 2 mM DTT; 25°C; Monolith NT.115; 1:1 binding model; Kd refers to monomer concentrations", "conditions": "both partners purified"}, "[4]": {"molecular_target": "B1", "assay": "MST; eYFP-L-DcuR at 0.1 μM, His6-PASC-Kin titrated from 10^-1 to 2 x 10^4 nM; Tris/HCl pH 7.7, 10 mM MgCl2, 2 mM DTT; 25°C; Monolith NT.115; 1:1 binding model; Kd refers to monomer concentrations", "conditions": "both partners purified"}, "T25-DcuR(D56N)": {"molecular_target": "T3, T25-DcuR(D56N) (E. coli, UniProt P0AD01 1-239, D56N)", "T3 construct": "E. coli DcuR, as pMW427 (T25-DcuR) with the phosphorylation site Asp56 changed to Asn; source: bacterial two-hybrid (BACTH) fusion in E. coli BTH101; not shown: T25 domain of Bordetella pertussis adenylate cyclase, N-terminal, kept", "T3 sequence (looked up)": "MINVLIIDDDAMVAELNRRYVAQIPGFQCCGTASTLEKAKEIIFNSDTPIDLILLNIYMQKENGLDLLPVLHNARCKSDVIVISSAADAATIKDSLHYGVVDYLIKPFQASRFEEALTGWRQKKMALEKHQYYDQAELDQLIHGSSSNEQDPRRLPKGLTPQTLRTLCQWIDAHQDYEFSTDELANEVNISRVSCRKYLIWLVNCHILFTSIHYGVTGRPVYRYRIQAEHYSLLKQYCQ", "assay": "two-hybrid; bacterial two-hybrid BACTH in E. coli BTH101 (ΔcyaA); T25 N-terminally on DcuR, T18 C-terminally on DcuS or PASC-Kin; β-galactosidase activity in Miller units; wild-type pair also with fumarate", "conditions": "partners not purified"}}}
{"binder": "B1", "values": [{"measurement": "stoichiometry N", "setting": "His6-DcuR", "result": 0.86, "unit": "mol DcuR/mol PASC-Kin"}, {"measurement": "binding result", "setting": "[1]", "result": "binds"}]}
{"binder": "B2", "values": [{"measurement": "stoichiometry N", "setting": "[2]", "result": 2}]}
{"binder": "PASC-Kin(H349A)-T18 (domain or fragment, E. coli, UniProt P0AEC8 211-539, looked up, cytoplasmic part of E. coli DcuS, as pMW1076 [DcuS(211-539)] with H349A; source: bacterial two-hybrid (BACTH) fusion in E. coli BTH101; not shown: T18 domain of Bordetella pertussis adenylate cyclase, C-terminal, kept) GLEPYEISTLFEQRQAMLQSIKEGVVAVDDRGEVTLINDAAQELLNYRKSQDDEKLSTLSHSWSQVVDVSEVLRDGTPRRDEEITIKDRLLLINTVPVRSNGVIIGAISTFRDKTEVRKLMQRLDGLVNYADALRERSAEFMNKLHVILGLLHLKSYKQLEDYILKTANNYQEEIGSLLGKIKSPVIAGFLISKINRATDLGHTLILNSESQLPDSGSEDQVATLITTLGNLIENALEALGPEPGGEISVTLHYRHGWLHCEVNDDGPGIAPDKIDHIFDKGVSTKGSERGVGLALVKQQVENLGGSIAVESEPGIFTQFFVQIPWDGE", "values": [{"measurement": "% of wild-type BACTH activity", "setting": "T25-DcuR", "result": 108, "unit": "%"}]}
{"binder": "eYFP-L-DcuR (natural protein, E. coli, UniProt P0AD01 1-239, looked up, response regulator DcuR of E. coli, joined genetically to eYFP by a short linker; unphosphorylated; The His6 tag is printed at the N-terminus and at the C-terminus in the same paragraph; also called eYfp-Linker-DcuR; His6-eYfp-Linker-DcuR; source: E. coli BL21(DE3), purified (Ni-NTA agarose)) MINVLIIDDDAMVAELNRRYVAQIPGFQCCGTASTLEKAKEIIFNSDTPIDLILLDIYMQKENGLDLLPVLHNARCKSDVIVISSAADAATIKDSLHYGVVDYLIKPFQASRFEEALTGWRQKKMALEKHQYYDQAELDQLIHGSSSNEQDPRRLPKGLTPQTLRTLCQWIDAHQDYEFSTDELANEVNISRVSCRKYLIWLVNCHILFTSIHYGVTGRPVYRYRIQAEHYSLLKQYCQ", "values": [{"measurement": "Kd", "setting": "[3]", "result": 1380, "unit": "nM"}, {"measurement": "Kd", "setting": "[4]", "result": 22, "unit": "nM"}]}
{"binder": "eYFP-L-DcuR-P (natural protein, E. coli, UniProt P0AD01 1-239, looked up, phosphorylated with carbamoyl phosphate; phosphorylation site Asp56 of DcuR, response regulator DcuR of E. coli, joined genetically to eYFP by a short linker, phosphorylated with carbamoyl phosphate; also called eYFP-DcuR~P; source: E. coli BL21(DE3), purified (Ni-NTA agarose), then incubated with 50 mM carbamoyl phosphate) MINVLIIDDDAMVAELNRRYVAQIPGFQCCGTASTLEKAKEIIFNSDTPIDLILLDIYMQKENGLDLLPVLHNARCKSDVIVISSAADAATIKDSLHYGVVDYLIKPFQASRFEEALTGWRQKKMALEKHQYYDQAELDQLIHGSSSNEQDPRRLPKGLTPQTLRTLCQWIDAHQDYEFSTDELANEVNISRVSCRKYLIWLVNCHILFTSIHYGVTGRPVYRYRIQAEHYSLLKQYCQ", "values": [{"measurement": "Kd", "setting": "[3]", "result": 28, "unit": "nM"}]}
{"binder": "DcuS-T18 (natural protein, E. coli, UniProt P0AEC8 1-543, looked up, membrane-integral C4-dicarboxylate sensor kinase DcuS of E. coli, full length; also called full-length DcuS; DcuS-fusion; source: bacterial two-hybrid (BACTH) fusion in E. coli BTH101; not shown: T18 domain of Bordetella pertussis adenylate cyclase, C-terminal, kept) MRHSLPYRMLRKRPMKLSTTVILMVSAVLFSVLLVVHLIYFSQISDMTRDGLANKALAVARTLADSPEIRQGLQKKPQESGIQAIAEAVRKRNDLLFIVVTDMQSLRYSHPEAQRIGQPFKGDDILKALNGEENVAINRGFLAQALRVFTPIYDENHKQIGVVAIGLELSRVTQQINDSRWSIIWSVLFGMLVGLIGTCILVKVLKKILFGLEPYEISTLFEQRQAMLQSIKEGVVAVDDRGEVTLINDAAQELLNYRKSQDDEKLSTLSHSWSQVVDVSEVLRDGTPRRDEEITIKDRLLLINTVPVRSNGVIIGAISTFRDKTEVRKLMQRLDGLVNYADALRERSHEFMNKLHVILGLLHLKSYKQLEDYILKTANNYQEEIGSLLGKIKSPVIAGFLISKINRATDLGHTLILNSESQLPDSGSEDQVATLITTLGNLIENALEALGPEPGGEISVTLHYRHGWLHCEVNDDGPGIAPDKIDHIFDKGVSTKGSERGVGLALVKQQVENLGGSIAVESEPGIFTQFFVQIPWDGERSNR", "values": [{"measurement": "% of wild-type BACTH activity", "setting": "T25-DcuR(D56N)", "result": 94, "unit": "%"}]}
{"binder": "DcuS(H349A)-T18 (natural protein, E. coli, UniProt P0AEC8 1-543, looked up, E. coli DcuS, as pMW428 (full-length DcuS-T18) with the phosphorylation site His349 changed to Ala; source: bacterial two-hybrid (BACTH) fusion in E. coli BTH101; not shown: T18 domain of Bordetella pertussis adenylate cyclase, C-terminal, kept) MRHSLPYRMLRKRPMKLSTTVILMVSAVLFSVLLVVHLIYFSQISDMTRDGLANKALAVARTLADSPEIRQGLQKKPQESGIQAIAEAVRKRNDLLFIVVTDMQSLRYSHPEAQRIGQPFKGDDILKALNGEENVAINRGFLAQALRVFTPIYDENHKQIGVVAIGLELSRVTQQINDSRWSIIWSVLFGMLVGLIGTCILVKVLKKILFGLEPYEISTLFEQRQAMLQSIKEGVVAVDDRGEVTLINDAAQELLNYRKSQDDEKLSTLSHSWSQVVDVSEVLRDGTPRRDEEITIKDRLLLINTVPVRSNGVIIGAISTFRDKTEVRKLMQRLDGLVNYADALRERSAEFMNKLHVILGLLHLKSYKQLEDYILKTANNYQEEIGSLLGKIKSPVIAGFLISKINRATDLGHTLILNSESQLPDSGSEDQVATLITTLGNLIENALEALGPEPGGEISVTLHYRHGWLHCEVNDDGPGIAPDKIDHIFDKGVSTKGSERGVGLALVKQQVENLGGSIAVESEPGIFTQFFVQIPWDGERSNR", "values": [{"measurement": "% of wild-type BACTH activity", "setting": "T25-DcuR", "result": 94, "unit": "%"}]}
